Experimental data reported in patent US20230235013A1 (MABSOLVE, published 2023).
Residue numbers refer to the chain shown, from its start. Names may count otherwise.

Experiments:
[1] = target: T1, Histidine-tagged recombinant human FcγRI (CD64) (human, UniProt P12314 16-288, limits assumed); experiment: SPR, His-FcγRI captured; Expt 3;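 note: biacore T200 SPR at 25 °C, Fc-variant antibodies at 100 µg/mL flowed 1 min over anti-His-captured FcγRI, signal taken just before injection end minus a buffer blank cycle; antibody analyte injected at 100 µg/mL for 1 min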
T1 construct: bought

human FcγRIIA (R131) = target: T2, human FcγRIIA (R131) (human, UniProt P12318 34-218, limits assumed); experiment: SPR, receptor captured on anti-His chip
T2 construct: bought; R131 allele
T2 sequence (looked up): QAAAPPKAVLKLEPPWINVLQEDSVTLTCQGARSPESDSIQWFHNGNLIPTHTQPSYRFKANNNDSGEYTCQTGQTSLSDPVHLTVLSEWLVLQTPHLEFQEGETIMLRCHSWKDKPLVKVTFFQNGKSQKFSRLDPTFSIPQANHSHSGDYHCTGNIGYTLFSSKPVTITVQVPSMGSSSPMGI

[2] = target: T3, human FcγRIIIB (NA2 allotype) (human, UniProt O75015 17-200, limits assumed); experiment: SPR, receptor captured on anti-His chip
T3 construct: bought; NA2 allotype

human FcRn [3] = target: T4, human FcRn (human, UniProt P55899 24-297; P61769 21-119); experiment: SPR pH 6.0, FcRn captured; Expt 1
T4 construct: bought
T4 sequence (P55899 24-297 limits assumed, chain 1 of 2): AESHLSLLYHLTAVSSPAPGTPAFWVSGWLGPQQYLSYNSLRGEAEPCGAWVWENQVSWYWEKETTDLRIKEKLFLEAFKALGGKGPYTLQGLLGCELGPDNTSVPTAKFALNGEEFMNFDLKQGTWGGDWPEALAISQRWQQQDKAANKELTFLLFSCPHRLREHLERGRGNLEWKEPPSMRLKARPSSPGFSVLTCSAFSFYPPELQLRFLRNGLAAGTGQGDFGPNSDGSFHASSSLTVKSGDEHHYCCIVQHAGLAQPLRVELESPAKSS
T4 sequence (P61769 21-119 limits assumed, chain 2 of 2): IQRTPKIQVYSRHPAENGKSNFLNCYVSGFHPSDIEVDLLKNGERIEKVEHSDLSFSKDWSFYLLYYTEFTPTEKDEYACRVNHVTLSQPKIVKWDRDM

rat FcγRI = target: T5, rat FcγRI (rat, UniProt A0A0B4J2J0 16-285); experiment: SPR, receptor captured on anti-His chip
T5 construct: bought; captured on anti-histidine chip
T5 sequence: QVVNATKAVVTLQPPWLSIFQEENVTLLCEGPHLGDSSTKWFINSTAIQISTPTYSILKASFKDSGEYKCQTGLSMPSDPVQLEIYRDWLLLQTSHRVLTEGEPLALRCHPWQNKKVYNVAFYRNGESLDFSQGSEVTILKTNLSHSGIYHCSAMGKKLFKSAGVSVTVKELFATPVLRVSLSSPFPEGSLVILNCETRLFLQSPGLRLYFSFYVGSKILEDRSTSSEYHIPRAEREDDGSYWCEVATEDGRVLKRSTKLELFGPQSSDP

rabbit FcγRI = target: T6, rabbit FcγRI (rabbit); experiment: SPR, receptor captured on anti-His chip
T6 construct: bought; captured on anti-histidine chip

mouse FcγRI = target: T7, mouse FcγRI (mouse, UniProt P26151 25-297); experiment: SPR, receptor captured on anti-His chip
T7 construct: bought; captured on anti-histidine chip
T7 sequence (looked up): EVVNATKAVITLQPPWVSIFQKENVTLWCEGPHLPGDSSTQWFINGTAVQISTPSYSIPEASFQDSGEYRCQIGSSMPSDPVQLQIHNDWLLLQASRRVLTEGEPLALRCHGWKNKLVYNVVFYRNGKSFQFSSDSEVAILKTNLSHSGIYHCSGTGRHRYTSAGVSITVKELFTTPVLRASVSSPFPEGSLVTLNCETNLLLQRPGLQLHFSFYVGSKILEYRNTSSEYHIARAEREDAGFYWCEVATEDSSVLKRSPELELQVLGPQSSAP

cynomolgus monkey FcRn = target: T8, cynomolgus monkey FcRn (cynomolgus monkey, UniProt Q8SPV9 24-297; Q8SPW0 21-119); experiment: SPR pH 6.0, FcRn captured
T8 construct: bought; also called cynomolgus FcRn

human FcγRIIIA (F158) [4] = target: T9, human FcγRIIIA (F158) (human, UniProt P08637 17-208); experiment: SPR, FcγRIIIA captured
T9 construct: bought; F158 allele
T9 sequence (P08637 17-208 limits assumed): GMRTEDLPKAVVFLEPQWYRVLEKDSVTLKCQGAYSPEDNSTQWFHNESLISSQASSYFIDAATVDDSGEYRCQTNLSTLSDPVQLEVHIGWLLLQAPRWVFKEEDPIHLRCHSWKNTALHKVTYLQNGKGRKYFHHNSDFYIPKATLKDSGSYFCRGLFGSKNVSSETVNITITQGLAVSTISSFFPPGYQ

[5] = target: T1, Histidine-tagged recombinant human …; experiment: SPR, His-FcγRI captured; Expt 2;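 note: biacore T200 SPR at 25 °C, Fc-variant antibodies at 100 µg/mL flowed 1 min over anti-His-captured receptor, signal read near injection end minus third buffer blank; antibody analyte injected at 100 µg/mL for 1 min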
human FcRn [6] = target: T4, human FcRn; experiment: SPR pH 6.0, FcRn captured; Expt 2
[7] = target: T1, Histidine-tagged recombinant human …; experiment: SPR, His-FcγRI captured; Expt 1;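 note: SPR at 25 °C on anti-His antibody chip capturing FcγRI, Fc-variant antibodies injected at 100 µg/mL for 1 min, signal near end of injection minus buffer blank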
[8] = target: T1, Histidine-tagged recombinant human …; experiment: SPR, His-FcγRI captured; Expt 1 Rep 2;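 note: antibody analyte injected at 100 µg/mL for 1 min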
[9] = target: T1, Histidine-tagged recombinant human …; experiment: SPR, His-FcγRI captured; Expt 1 Rep 1;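 note: antibody analyte injected at 100 µg/mL for 1 min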
[10] = target: T1, Histidine-tagged recombinant human …; experiment: SPR, His-FcγRI captured; Expt 2 Rep 2;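 note: antibody analyte injected at 100 µg/mL for 1 min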
human FcγRIIIA (F158) [11] = target: T9, human FcγRIIIA (F158); experiment: SPR, receptor captured on anti-His chip
[12] = target: T1, Histidine-tagged recombinant human …; experiment: SPR, receptor captured on anti-His chip
[13] = target: T10, Sheep Fc-CD52 fusion protein (Absolute Antibody Cat. No. PR00205) (human, UniProt P31358 25-36); experiment: ELISA, antigen coated, antibody 5 µg/mL
T10 construct: bought; also called CD52 antigen; human CD52; not shown: sheep Fc

[14] = target: human FcγRIIIa V158 allele (human, UniProt P08637 17-208, limits assumed); experiment: SPR, captured His-receptor
human FcγRIIIa V158 allele, sequence (P08637 17-208 F176V limits assumed): as the sequence (P08637 17-208 limits assumed) above, with F160V counted along it

[15] = target: T11, mouse FcγRI (Sino Biological Cat. No. 50086-M08H) (mouse, UniProt P26151 25-297); experiment: SPR, captured His-receptor
T11 construct: bought
T11 sequence (looked up): T7 sequence (looked up)

[16] = target: T12, human FcγRIIIB (NA2 allotype, Sino Biological Cat. No. 11046-H08H) (human, UniProt O75015 17-200); experiment: SPR, captured His-receptor
T12 construct: bought; also called human FcγRIIIb NA2 allele

[17] = target: T13, human FcγRIIIA (F158, Sino Biological Cat. No. 10389-H08H) (human, UniProt P08637 17-208); experiment: SPR, captured His-receptor
T13 construct: bought; also called human FcγRIIIa F158 allele
T13 sequence (P08637 17-208 limits assumed): as the sequence (P08637 17-208 limits assumed) above

[18] = target: T14, human FcγRIIB (Sino Biological Cat. No. 10259-H08H) (human, UniProt P31994 43-217); experiment: SPR, captured His-receptor
T14 construct: bought
T14 sequence (looked up): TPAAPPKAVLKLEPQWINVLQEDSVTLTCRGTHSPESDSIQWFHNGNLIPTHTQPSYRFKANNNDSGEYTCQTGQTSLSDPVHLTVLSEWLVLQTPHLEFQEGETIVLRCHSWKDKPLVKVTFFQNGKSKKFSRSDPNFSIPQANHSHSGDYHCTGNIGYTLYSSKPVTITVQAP

[19] = target: T15, Histidine-tagged recombinant human FcγRI (CD64) (human, UniProt P12314 16-288); experiment: SPR, captured His-receptor
T15 construct: bought; also called Sino Biological Cat. No. 12056-H08H

[20] = target: T16, human FcγRIIA (R131, Sino Biological Cat. No. 10374-H08H) (human, UniProt P12318 34-218); experiment: SPR, captured His-receptor
T16 construct: bought; also called human FcγRIIa R131 allele; FcγRII allele R131
T16 sequence (looked up): T2 sequence (looked up)

B1: anti-CD20 human IgG1 L234Q/L235S/G236R (antibody)
heavy: QVQLQQPGAELVKPGASVKMSCKASGYTFTSYNMHWVKQTPGRGLEWIGAIYPGNGDTSYNQKFKGKATLTADKSSSTAYMQLSSLTSEDSAVYYCARSTYYGGDWYFNVWGAGTTVTVSSASTKGPSVFPLAPSSKSTSGGTAALGCLVKDYFPEPVTVSWNSGALTSGVHTFPAVLQSSGLYSLSSVVTVPSSSLGTQTYICNVNHKPSNTKVDKKVEPKSCDKTHTCPPCPAPEQSRGPSVFLFPPKPKDTLMISRTPEVTCVVVDVSHEDPEVKFNWYVDGVEVHNAKTKPREEQYNSTYRVVSVLTVLHQDWLNGKEYKCKVSNKALPAPIEKTISKAKGQPREPQVYTLPPSRDELTKNQVSLTCLVKGFYPSDIAVEWESNGQPENNYKTTPPVLDSDGSFFLYSKLTVDKSRWQQGNVFSCSVMHEALHNHYTQKSLSLSPGK
light: QIVLSQSPAILSASPGEKVTMTCRASSSVSYIHWFQQKPGSSPKPWIYATSNLASGVPVRFSGSGSGTSYSLTISRVEAEDAATYYCQQWTSNPPTFGGGTKLEIKRTVAAPSVFIFPPSDEQLKSGTASVVCLLNNFYPREAKVQWKVDNALQSGNSQESVTEQDSKDSTYSLSSTLTLSKADYEKHKVYACEVTHQGLSSPVTKSFNRGEC
notes: also called 2-33; 10.77
Corrected response (RU) [1]: 3.8 RU | Corrected response (RU) (human FcγRIIA (R131)): 1.8 RU | Corrected response (RU) [2]: 2.3 RU | Corrected response (RU) (human FcRn [3]): 488 RU | Corrected response (RU) (rat FcγRI): 0.6 RU | Corrected response (RU) (rabbit FcγRI): 0.9 RU | Corrected response (RU) (mouse FcγRI): 0.5 RU | Corrected response (RU) (cynomolgus monkey FcRn): 1170 RU | Corrected response (RU) (human FcγRIIIA (F158) [4]): 2.7 RU | Corrected response (RU) [5]: 1.6 RU | Corrected response (RU) (human FcRn [6]): 496 RU | Corrected response (RU) [7]: -1.8 RU

B2: anti-CD20 human IgG1 L235T/G236R (antibody)
heavy: not shown
light: B1 light
notes: also called 2-86
Corrected response (RU) [8]: -10.6 RU | Corrected response (RU) [9]: -9.4 RU | Corrected response (RU) [10]: 0 RU

B3: anti-CD20 human IgG1 L234S/L235T (antibody)
heavy: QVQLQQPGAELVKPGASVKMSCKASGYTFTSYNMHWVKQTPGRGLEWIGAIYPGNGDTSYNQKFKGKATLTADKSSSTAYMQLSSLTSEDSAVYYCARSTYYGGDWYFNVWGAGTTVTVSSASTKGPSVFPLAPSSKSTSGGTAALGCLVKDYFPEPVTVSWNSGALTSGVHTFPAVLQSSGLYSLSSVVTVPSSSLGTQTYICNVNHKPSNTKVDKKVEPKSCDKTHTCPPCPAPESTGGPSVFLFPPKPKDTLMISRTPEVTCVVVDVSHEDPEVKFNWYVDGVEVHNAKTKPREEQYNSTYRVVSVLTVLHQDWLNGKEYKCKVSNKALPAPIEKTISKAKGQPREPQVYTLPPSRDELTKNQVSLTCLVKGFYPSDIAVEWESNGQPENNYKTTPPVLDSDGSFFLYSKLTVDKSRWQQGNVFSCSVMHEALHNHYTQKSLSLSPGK
light: B1 light
notes: also called 2-87
Corrected response (RU) [8]: 54.1 RU | Corrected response (RU) [9]: 62.9 RU | Corrected response (RU) [10]: 62.4 RU

B4: anti-CD20 human IgG1 N297Q (aglycosyl) (antibody)
heavy: not shown
light: B1 light
notes: also called 2-67
Corrected response (RU) (human FcγRIIIA (F158) [11]): -1.4 RU | Corrected response (RU) (human FcγRIIA (R131)): 9.4 RU | Corrected response (RU) (human FcRn [3]): 426 RU | Corrected response (RU) (rat FcγRI): 1470 RU | Corrected response (RU) (rabbit FcγRI): 410 RU | Corrected response (RU) [12]: 578 RU | Corrected response (RU) (mouse FcγRI): 49.3 RU | Corrected response (RU) (cynomolgus monkey FcRn): 1040 RU | Corrected response (RU) (human FcRn [6]): 430 RU

B5: anti-CD52 human IgG1 L234S/L235V/G236R (antibody)
heavy: QVQLQESGPGLVRPSQTLSLTCTVSGFTFTDFYMNWVRQPPGRGLEWIGFIRDKAKGYTTEYNPSVKGRVTMLVDTSKNQFSLRLSSVTAADTAVYYCAREGHTAAPFDYWGQGSLVTVSSASTKGPSVFPLAPSSKSTSGGTAALGCLVKDYFPEPVTVSWNSGALTSGVHTFPAVLQSSGLYSLSSVVTVPSSSLGTQTYICNVNHKPSNTKVDKKVEPKSCDKTHTCPPCPAPESVRGPSVFLFPPKPKDTLMISRTPEVTCVVVDVSHEDPEVKFNWYVDGVEVHNAKTKPREEQYNSTYRVVSVLTVLHQDWLNGKEYKCKVSNKALPAPIEKTISKAKGQPREPQVYTLPPSRDELTKNQVSLTCLVKGFYPSDIAVEWESNGQPENNYKTTPPVLDSDGSFFLYSKLTVDKSRWQQGNVFSCSVMHEALHNHYTQKSLSLSPGK
light: not shown
notes: also called 4-53; copies: 2 + 2
Mean Absorbance [13]: 1.23 absorbance | binding result [14]: no binding (tested: 100 µg/mL) | binding result [15]: no binding (tested: 100 µg/mL) | binding result [16]: no binding (tested: 100 µg/mL) | binding result [17]: no binding (tested: 100 µg/mL) | binding result [18]: no binding (tested: 100 µg/mL) | binding result [19]: no binding (tested: 100 µg/mL) | binding result [20]: no binding (tested: 100 µg/mL)

B6: anti-CD52 human IgG1 L234T/L235Q/G236R (antibody)
heavy: B5 heavy with S238T, V239Q
light: not shown
notes: also called 4-60; copies: 2 + 2
Mean Absorbance [13]: 1.35 absorbance | binding result [14]: no binding (tested: 100 µg/mL) | binding result [15]: no binding (tested: 100 µg/mL) | binding result [16]: no binding (tested: 100 µg/mL) | binding result [17]: no binding (tested: 100 µg/mL) | binding result [18]: no binding (tested: 100 µg/mL) | binding result [19]: no binding (tested: 100 µg/mL) | binding result [20]: no binding (tested: 100 µg/mL)

B7: anti-CD52 human IgG1 L234T/L235T/G236R (antibody)
heavy: B5 heavy with S238T, V239T
light: not shown
notes: also called 4-63; copies: 2 + 2
Mean Absorbance [13]: 1.48 absorbance | binding result [14]: no binding (tested: 100 µg/mL) | binding result [15]: no binding (tested: 100 µg/mL) | binding result [16]: no binding (tested: 100 µg/mL) | binding result [17]: no binding (tested: 100 µg/mL) | binding result [18]: no binding (tested: 100 µg/mL) | binding result [19]: no binding (tested: 100 µg/mL) | binding result [20]: no binding (tested: 100 µg/mL)
